Here are results for eight molecules from patent publication US7132258 (UNIVERSITY OF MASSACHUSETTS, dated 2006).

To fix the notation:
T1: VP16 AD-full-length hRARα fusion (human, UniProt P10276 1-462)
T1 construct: mature; also called VP16-RAR
T1 sequence: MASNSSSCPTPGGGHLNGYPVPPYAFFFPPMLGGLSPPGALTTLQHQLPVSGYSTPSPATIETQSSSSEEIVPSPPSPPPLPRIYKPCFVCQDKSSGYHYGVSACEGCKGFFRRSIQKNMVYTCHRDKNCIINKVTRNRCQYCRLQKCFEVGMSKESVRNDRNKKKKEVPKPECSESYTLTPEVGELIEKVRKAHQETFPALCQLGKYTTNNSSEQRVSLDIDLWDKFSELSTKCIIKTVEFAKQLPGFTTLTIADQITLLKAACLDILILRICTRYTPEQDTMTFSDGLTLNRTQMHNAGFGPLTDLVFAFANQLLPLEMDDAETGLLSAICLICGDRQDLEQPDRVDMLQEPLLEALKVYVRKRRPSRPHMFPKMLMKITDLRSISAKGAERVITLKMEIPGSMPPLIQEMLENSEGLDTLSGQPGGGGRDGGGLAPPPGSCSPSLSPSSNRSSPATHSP

T2: RAC3.1 (yeast two-hybrid clone, RAC3 amino acids 401-1204) as Gal4 AD fusion (human, UniProt Q9Y6Q9 401-1204)
T2 construct: Order of the fusion (Gal4 AD at the N-terminus) follows the vector; also called Gal4 AD fusion (RAC3.1)
T2 sequence: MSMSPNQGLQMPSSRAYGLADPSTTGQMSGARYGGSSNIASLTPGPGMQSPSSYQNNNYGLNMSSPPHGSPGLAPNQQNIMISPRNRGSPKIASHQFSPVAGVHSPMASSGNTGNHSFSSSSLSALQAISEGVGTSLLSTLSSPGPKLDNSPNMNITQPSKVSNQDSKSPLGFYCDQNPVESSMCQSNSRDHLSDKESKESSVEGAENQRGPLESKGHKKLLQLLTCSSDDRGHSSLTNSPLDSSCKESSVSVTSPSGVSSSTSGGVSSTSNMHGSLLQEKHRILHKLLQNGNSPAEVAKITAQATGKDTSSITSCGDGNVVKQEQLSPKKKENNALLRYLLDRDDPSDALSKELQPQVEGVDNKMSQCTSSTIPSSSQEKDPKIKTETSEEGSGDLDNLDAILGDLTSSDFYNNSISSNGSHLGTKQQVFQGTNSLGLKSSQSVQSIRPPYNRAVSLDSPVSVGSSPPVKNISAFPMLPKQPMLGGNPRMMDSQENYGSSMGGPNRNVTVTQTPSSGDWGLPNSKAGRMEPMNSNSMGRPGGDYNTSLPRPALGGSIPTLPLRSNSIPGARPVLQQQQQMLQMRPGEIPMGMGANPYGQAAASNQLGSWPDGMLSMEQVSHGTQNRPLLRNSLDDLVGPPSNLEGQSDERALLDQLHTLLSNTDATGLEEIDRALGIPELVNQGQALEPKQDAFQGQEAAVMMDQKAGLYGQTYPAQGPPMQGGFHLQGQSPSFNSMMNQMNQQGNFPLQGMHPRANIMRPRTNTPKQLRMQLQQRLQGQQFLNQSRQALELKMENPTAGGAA

B1: 35S-labeled hRARα (in vitro translated) (receptor, human, UniProt P10276 1-462, looked up)
chain: T1 sequence
notes: Made in reticulocyte lysate; also called 35S-RAR
B2: RAC3 amino acids 401-624 as GAL4 DBD fusion (pCMX-Gal) (other)
chain: MKLLSSIEQACDICRLKKLKCSKEKPKCAKCLKNNWECRYSPKTKRSPLTRAHLTEVESRLERLEQLFLLIFPREDLDMILKMDSLQDIKALLTGLFVQDNVNKDAVTDRLASVETDMPLTLRQHRISATSSSEESSNKGQRQLTVSMSMSPNQGLQMPSSRAYGLADPSTTGQMSGARYGGSSNIASLTPGPGMQSPSSYQNNNYGLNMSSPPHGSPGLAPNQQNIMISPRNRGSPKIASHQFSPVAGVHSPMASSGNTGNHSFSSSSLSALQAISEGVGTSLLSTLSSPGPKLDNSPNMNITQPSKVSNQDSKSPLGFYCDQNPVESSMCQSNSRDHLSDKESKESSVEGAENQRGPLESKGHKKLLQL
notes: domain: GAL4 DBD
B3: Gal4 DBD fusion of full-length human RARα (receptor, UniProt P04386 1-147, looked up)
chain: MKLLSSIEQACDICRLKKLKCSKEKPKCAKCLKNNWECRYSPKTKRSPLTRAHLTEVESRLERLEQLFLLIFPREDLDMILKMDSLQDIKALLTGLFVQDNVNKDAVTDRLASVETDMPLTLRQHRISATSSSEESSNKGQRQLTVSMASNSSSCPTPGGGHLNGYPVPPYAFFFPPMLGGLSPPGALTTLQHQLPVSGYSTPSPATIETQSSSSEEIVPSPPSPPPLPRIYKPCFVCQDKSSGYHYGVSACEGCKGFFRRSIQKNMVYTCHRDKNCIINKVTRNRCQYCRLQKCFEVGMSKESVRNDRNKKKKEVPKPECSESYTLTPEVGELIEKVRKAHQETFPALCQLGKYTTNNSSEQRVSLDIDLWDKFSELSTKCIIKTVEFAKQLPGFTTLTIADQITLLKAACLDILILRICTRYTPEQDTMTFSDGLTLNRTQMHNAGFGPLTDLVFAFANQLLPLEMDDAETGLLSAICLICGDRQDLEQPDRVDMLQEPLLEALKVYVRKRRPSRPHMFPKMLMKITDLRSISAKGAERVITLKMEIPGSMPPLIQEMLENSEGLDTLSGQPGGGGRDGGGLAPPPGSCSPSLSPSSNRSSPATHSP
notes: domain: Gal4 DBD;mature; also called full-length hRARα; pGBT-hRARα
B4: VDR364* (LBD of hVDR truncated at amino acid 364) as Gal4 DBD fusion (receptor, UniProt P04386 1-147, looked up)
chain: MKLLSSIEQACDICRLKKLKCSKEKPKCAKCLKNNWECRYSPKTKRSPLTRAHLTEVESRLERLEQLFLLIFPREDLDMILKMDSLQDIKALLTGLFVQDNVNKDAVTDRLASVETDMPLTLRQHRISATSSSEESSNKGQRQLTVSMKEFILTDEEVQRKREMILKRKEEEALKDSLRPKLSEEQQRIIAILLDAHHKTYDPTYSDFCQFRPPVRVNDGGGSHPSRPNSRHTPSFSGDSSSSCSDHCITSSDMMDSSSFSNLDLSEEDSDDPSVTLELSQLSMLPHLADLVSYSIQKVIGFAKMIPGFRDLTSEDQIVLLKSSAIEVIMLRSNESFTMDDMSWTCGNQDYKYRVSDVTKAGHSLELIEPLIKFQVGLKKLNLHEEEHVLLMAICIVSPDRPGVQDAALIEAIQDRLSNTLQ
notes: domain: Gal4 DBD;domain: LBD of hVDR truncated at amino acid 364
B5: SNF1 (other, UniProt P06782 1-633, looked up)
chain: MSSNNNTNTAPANANSSHHHHHHHHHHHHHGHGGSNSTLNNPKSSLADGAHIGNYQIVKTLGEGSFGKVKLAYHTTTGQKVALKIINKKVLAKSDMQGRIEREISYLRLLRHPHIIKLYDVIKSKDEIIMVIEYAGNELFDYIVQRDKMSEQEARRFFQQIISAVEYCHRHKIVHRDLKPENLLLDEHLNVKIADFGLSNIMTDGNFLKTSCGSPNYAAPEVISGKLYAGPEVDVWSCGVILYVMLCRRLPFDDESIPVLFKNISNGVYTLPKFLSPGAAGLIKRMLIVNPLNRISIHEIMQDDWFKVDLPEYLLPPDLKPHPEEENENNDSKKDGSSPDNDEIDDNLVNILSSTMGYEKDEIYESLESSEDTPAFNEIRDAYMLIKENKSLIKDMKANKSVSDELDTFLSQSPPTFQQQSKSHQKSQVDHETAKQHARRMASAITQQRTYHQSPFMDQYKEEDSTVSILPTSLPQIHRANMLAQGSPAASKISPLVTKKSKTRWHFGIRSRSYPLDVMGEIYIALKNLGAEWAKPSEEDLWTIKLRWKYDIGNKTNTNEKIPDLMKMVIQLFQIETNNYLVDFKFDGWESSYGDDTTVSNISEDEMSTFSAYPFLHLTTKLIMELAVNSQSN
B6: Gal4 DBD fusion of full-length hRXRα (receptor, UniProt P04386 1-147, looked up)
chain: MKLLSSIEQACDICRLKKLKCSKEKPKCAKCLKNNWECRYSPKTKRSPLTRAHLTEVESRLERLEQLFLLIFPREDLDMILKMDSLQDIKALLTGLFVQDNVNKDAVTDRLASVETDMPLTLRQHRISATSSSEESSNKGQRQLTVSMDTKHFLPLDFSTQVNSSLTSPTGRGSMAAPSLHPSLGPGIGSPGQLHSPISTLSSPINGMGPPFSVISSPMGPHSMSVPTTPTLGFSTGSPQLSSPMNPVSSSEDIKPPLGLNGVLKVPAHPSGNMASFTKHICAICGDRSSGKHYGVYSCEGCKGFFKRTVRKDLTYTCRDNKDCLIDKRQRNRCQYCRYQKCLAMGMKREAVQEERQRGKDRNENEVESTSSANEDMPVERILEAELAVEPKTETYVEANMGLNPSSPNDPVTNICQAADKQLFTLVEWAKRIPHFSELPLDDQVILLRAGWNELLIASFSHRSIAVKDGILLATGLHVHRNSAHSAGVGAIFDRVLTELVSKMRDMQMDKTELGCLRAIVLFNPDSKGLSNPAEVEALREKVYASLEAYCKHKYPEQPGRFAKLLLRLPALRSIGLKCLEHLFFFKLIGDTPIDTFLMEMLEAPHQMT
notes: domain: Gal4 DBD;mature
B7: GST-RAC3-RID fusion (other)
chain: LESKGHKKLLQLLTCSSDDRGHSSLTNSPLDSSCKESSVSVTSPSGVSSSTSGGVSSTSNMHGSLLQEKHRILHKLLQNGNSPAEVAKITAQATGKDTSSITSCGDGNVVKQEQLSPKKKENNALLRYLLDRDDPSDALS
notes: Purified from DH5α cells, separated by SDS-PAGE, blotted, denatured and renatured on the filter; also called GST-RID fusion; not shown: glutathione S-transferase (GST) module
B8: RAC3 amino acids 401-695 as GAL4 DBD fusion (pCMX-Gal) (other)
chain: MKLLSSIEQACDICRLKKLKCSKEKPKCAKCLKNNWECRYSPKTKRSPLTRAHLTEVESRLERLEQLFLLIFPREDLDMILKMDSLQDIKALLTGLFVQDNVNKDAVTDRLASVETDMPLTLRQHRISATSSSEESSNKGQRQLTVSMSMSPNQGLQMPSSRAYGLADPSTTGQMSGARYGGSSNIASLTPGPGMQSPSSYQNNNYGLNMSSPPHGSPGLAPNQQNIMISPRNRGSPKIASHQFSPVAGVHSPMASSGNTGNHSFSSSSLSALQAISEGVGTSLLSTLSSPGPKLDNSPNMNITQPSKVSNQDSKSPLGFYCDQNPVESSMCQSNSRDHLSDKESKESSVEGAENQRGPLESKGHKKLLQLLTCSSDDRGHSSLTNSPLDSSCKESSVSVTSPSGVSSSTSGGVSSTSNMHGSLLQEKHRILHKLLQNGNSP
notes: domain: GAL4 DBD

The target of assay [1] is T3, full-length RAC3 (in vitro translated, 35S-labeled or unlabeled) (human, UniProt Q9Y6Q9 2-1424).
T3 construct: Made in reticulocyte lysate; also called 35S-RAC3
T3 sequence (Q9Y6Q9 other isoform, or with tags, fused parts or gaps limits assumed): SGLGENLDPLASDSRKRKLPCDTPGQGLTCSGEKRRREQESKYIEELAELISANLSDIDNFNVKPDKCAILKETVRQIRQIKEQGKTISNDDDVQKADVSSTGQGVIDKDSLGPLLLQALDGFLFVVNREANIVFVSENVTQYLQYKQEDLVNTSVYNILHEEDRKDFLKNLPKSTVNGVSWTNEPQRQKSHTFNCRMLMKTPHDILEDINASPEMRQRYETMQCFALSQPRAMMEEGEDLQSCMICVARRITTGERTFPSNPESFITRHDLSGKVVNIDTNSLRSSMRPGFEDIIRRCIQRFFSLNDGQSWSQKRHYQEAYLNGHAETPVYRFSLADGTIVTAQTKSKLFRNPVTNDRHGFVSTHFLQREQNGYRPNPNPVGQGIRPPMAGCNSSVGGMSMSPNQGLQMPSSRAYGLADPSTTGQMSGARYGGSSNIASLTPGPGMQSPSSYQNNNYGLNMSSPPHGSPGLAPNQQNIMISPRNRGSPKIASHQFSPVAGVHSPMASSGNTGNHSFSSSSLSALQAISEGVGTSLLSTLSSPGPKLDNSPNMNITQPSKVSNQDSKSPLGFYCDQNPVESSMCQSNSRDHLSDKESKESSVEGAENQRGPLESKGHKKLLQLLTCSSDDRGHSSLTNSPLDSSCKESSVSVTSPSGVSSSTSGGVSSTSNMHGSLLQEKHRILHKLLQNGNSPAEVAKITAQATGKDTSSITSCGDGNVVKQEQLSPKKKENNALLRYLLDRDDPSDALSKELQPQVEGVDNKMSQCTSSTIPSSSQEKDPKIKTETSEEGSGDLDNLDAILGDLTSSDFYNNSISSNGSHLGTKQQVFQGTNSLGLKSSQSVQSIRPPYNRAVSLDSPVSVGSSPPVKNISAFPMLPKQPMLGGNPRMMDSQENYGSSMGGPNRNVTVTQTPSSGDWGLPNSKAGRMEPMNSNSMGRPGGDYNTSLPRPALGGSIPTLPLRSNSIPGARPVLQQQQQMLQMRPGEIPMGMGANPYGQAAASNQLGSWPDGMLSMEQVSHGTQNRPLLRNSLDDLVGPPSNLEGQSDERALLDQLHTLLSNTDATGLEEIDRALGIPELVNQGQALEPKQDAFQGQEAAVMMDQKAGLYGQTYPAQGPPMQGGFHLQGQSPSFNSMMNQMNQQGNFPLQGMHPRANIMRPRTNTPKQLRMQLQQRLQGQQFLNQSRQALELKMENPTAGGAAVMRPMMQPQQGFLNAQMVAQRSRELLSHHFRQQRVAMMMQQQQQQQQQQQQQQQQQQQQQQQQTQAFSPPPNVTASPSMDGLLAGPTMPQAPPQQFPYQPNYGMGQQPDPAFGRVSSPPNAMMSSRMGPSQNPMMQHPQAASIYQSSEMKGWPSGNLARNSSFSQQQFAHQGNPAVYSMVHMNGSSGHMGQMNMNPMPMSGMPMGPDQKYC
In words: trimeric far-Western: unlabeled full-length RAC3 held on CBP fragments C and D, then 35S-labeled RAR, with ligand.

The target of assay [2] is T1, VP16 AD-full-length hRARα fusion. The assay can be described thus: mammalian two-hybrid, luciferase reporter, with or without 1 µM atRA. (In a reporter assay the amount or activity of a reporter protein is the signal.)
Assay [3] concerns the target T2, RAC3.1 (yeast two-hybrid clone, RAC3 …). In words: yeast two-hybrid screen for RAR-interacting proteins, Gal4 DBD-full-length hRARα as bait, HIS3 and LacZ reporters.
Assay [4] shares this target. In words: yeast two-hybrid, with or without 1 µM ligand.
For assay [5] the target is unchanged. The assay can be described thus: yeast two-hybrid, β-galactosidase liquid ONPG assay.
For assay [6] the target is unchanged. In words: yeast two-hybrid, β-galactosidase ONPG assay, 1 µM ligand.
The target in assay [7] is B1. In words: far-Western, GST-RAC3-RID on the filter, 35S-labeled receptor, 1 µM all-trans retinoic acid.

As for B1, the binding result in assay [1] was “binds”.

For the molecule B2, the binding result in assay [2] is listed as “no binding”.

On to B3, for which the binding result in assay [3] is listed as “binds”.

For B4, the binding result in assay [4] is recorded as “no binding”.

On to B5, for which, in assay [5], the binding result is “no binding”.

For B6, the binding result in assay [6] is recorded as “binds”.

As for B7, the binding result in assay [7] is “binds”.

For B8, the binding result in assay [2] is on record as “no binding”.
